The source of these data is patent US5298404.

For series [1], the system named is HpaI restriction endonuclease (recombinant) (Haemophilus parainfluenzae). Description: cleavage_in_vitro. Conditions: assay as for native enzyme; Mg2+, 37 C.
Series [2] has as its system HpaI restriction endonuclease (native) (Haemophilus parainfluenzae). Description: cleavage_in_vitro. The following applies: 10 mM Tris pH 7.5, 10 mM MgCl2, 100 mM NaCl, 37 C.

As to phage lambda DNA, the activity in series [1] and in series [2] was 250000 units/mg each time.
